Test results taken from the Human Domainome abundance scans (Beltran et al. 2025).
± gives the uncertainty stated by the source.

B1: SWI/SNF-related matrix-associated actin-dependent regulator of chromatin subfamily B member 1, residues 181 to 248; numbered along this chain, Q12824 (parent)
chain: SQPEVLVPIRLDMEIDGQKLRDAFTWNMNEKLMTPEMFSEILCDDLDLNPLTFVPAIASAIRQQIESY

Variants of: B1
Experiment: abundance fitness (aPCA) (normalised: wild type 0, dead -1); higher = more abundant; growth selection in yeast, the domain comes from the species named
Settings: Homo sapiens

Variant | abundance fitness
SQPEVLVPIRLDMEIDGQKLRDAFTWNMNEKLMTPEMFSEILCDDLDLNPLTFVPAISSAIRQQIESY | -0.072 ± 0.17
SQPEVLFPIRLDMEIDGQKLRDAFTWNMNEKLMTPEMFSEILCDDLDLNPLTFVPAIASAIRQQIESY | -0.547 ± 0.17
SQPEVLVLIRLDMEIDGQKLRDAFTWNMNEKLMTPEMFSEILCDDLDLNPLTFVPAIASAIRQQIESY | -0.512 ± 0.043
SQPEVLVPIRLDMEIDGQKLRDAFTWNMNEKLMTPEMFSEILCDDLDLNPLTFVPVIASAIRQQIESY | -0.319 ± 0.052
SQPEVLVPIRLDMEIDGQKLRDAFTWNMNEKLMTPEMFSEILCDDLDLNPLTFVPDIASAIRQQIESY | -0.552 ± 0.11
SFPEVLVPIRLDMEIDGQKLRDAFTWNMNEKLMTPEMFSEILCDDLDLNPLTFVPAIASAIRQQIESY | 0.392 ± 0.24
SQPEVLVPIRLDMEIDGQKHRDAFTWNMNEKLMTPEMFSEILCDDLDLNPLTFVPAIASAIRQQIESY | -0.525 ± 0.37
SQPEVLVPIRLDMEIDGQKLIDAFTWNMNEKLMTPEMFSEILCDDLDLNPLTFVPAIASAIRQQIESY | 0.081 ± 0.094
SQPEVLVPIRLDMEIDGQKLMDAFTWNMNEKLMTPEMFSEILCDDLDLNPLTFVPAIASAIRQQIESY | -0.073 ± 0.085
SQPEVLVPIRLDMEIDGQKLRDAFTWNMNEKLMTPEMFSEILCDDLDLNPLTFVPAIASAIRQQIPSY | -0.919 ± 0.44
SQPEVLVPIRLDMEIDGQKLRDAFTWNMNEKLMTPEMFSEILCDDLDLNPLTFVPAIASAIRQQIDSY | -0.073 ± 0.045
SQPEVLVPIRLDMEIDGQKLRDAVTWNMNEKLMTPEMFSEILCDDLDLNPLTFVPAIASAIRQQIESY | -0.331 ± 0.051
SQPEVLVPIRLDMEIDGQKLRDADTWNMNEKLMTPEMFSEILCDDLDLNPLTFVPAIASAIRQQIESY | -0.451 ± 0.098
SQPEVLVPIRLDMEIDGQKLRDAQTWNMNEKLMTPEMFSEILCDDLDLNPLTFVPAIASAIRQQIESY | -1.06 ± 0.24
SQPEVLVPIRLDMEIDNQKLRDAFTWNMNEKLMTPEMFSEILCDDLDLNPLTFVPAIASAIRQQIESY | -0.714 ± 0.49
SQPEVLVPIRLDMEIDGQKLRDAFTWNMNEKLMTPEMFSEILCDDLDLNWLTFVPAIASAIRQQIESY | -0.845 ± 0.14
SQPEVLVPIRLDMEIDGQKLRDAFTWNMNEKLMTPEMFSEILCDDLDFNPLTFVPAIASAIRQQIESY | -0.656 ± 0.17
SQPEVLVPIRLDMEIDGQKLRDAFTWNMNEKLMTPEMFSEILCDDLDLNPLTFVPAGASAIRQQIESY | -0.781 ± 0.1
SQPEVLVPIRLDMEILGQKLRDAFTWNMNEKLMTPEMFSEILCDDLDLNPLTFVPAIASAIRQQIESY | -0.5 ± 0.055
SQPEVLVPIRLDMEIDGQKLRDAFTWNMNEKLMTPEMFSEILCDDLDLNPLTFVPAIASHIRQQIESY | -0.311 ± 0.066
SQPEVLVPIRLDMEIDGQKLRDAFTWNMNEKLMTPEMFSEILCDDLDLNPLTFVPAIASPIRQQIESY | -0.974 ± 0.17
SQPEVLVPIRLDMEIDGQKLRDAFTWNMNEKLMTPEMFSEILCDDLDLNPLTFVPAIASQIRQQIESY | 0.068 ± 0.049
SQPEVLVPIRLDMEIDGQKLRDAFTWNMNEKLMGPEMFSEILCDDLDLNPLTFVPAIASAIRQQIESY | -0.686 ± 0.25
SQPEVLVPIRLDMEIDGQKLRDAFTWNMNEKLMTPEMFSEILCDDLDLNPLTFVPAIASAIRQQPESY | -0.689 ± 0.26
SQPEVLVPIRLDMEIDGQKLRDAFTWNMNEKLWTPEMFSEILCDDLDLNPLTFVPAIASAIRQQIESY | -0.488 ± 0.068
SQPEVLVPIRLDMEIDGQKLRDAFTWNMNEKLKTPEMFSEILCDDLDLNPLTFVPAIASAIRQQIESY | -0.325 ± 0.091
SQPEVLVPIRLDMEIDGQKLRDAFTWNMNEKLVTPEMFSEILCDDLDLNPLTFVPAIASAIRQQIESY | -0.248 ± 0.052

Variant | abundance fitness
SQPEVLVPIRLDMEIDGQKLRDAFTWNMNEKLMTPEMFSEILCDDRDLNPLTFVPAIASAIRQQIESY | 0.161 ± 0.046
SQPEVLVPIRLDMEIDGQKLRDAFTWNMNEKLMTPEMFSEILCDDVDLNPLTFVPAIASAIRQQIESY | -0.746 ± 0.12
SQPEVHVPIRLDMEIDGQKLRDAFTWNMNEKLMTPEMFSEILCDDLDLNPLTFVPAIASAIRQQIESY | -0.212 ± 0.13
SQPEVLVPIRLDMEIDGQKLRDAFTWNMNEKLMTPEMFSEILCDDLDLNPLTFVPAIASAIYQQIESY | -0.119 ± 0.45
SQPEVLVPIRLDMEIDGQKLRDAFTWNMNEKLMTPEMFSEILCDDLDLGPLTFVPAIASAIRQQIESY | -0.735 ± 0.11
SQPEVLVPIRLDMEIDGQKLRDAFTWNMNEKLMTPEMFSEILCDDLDLTPLTFVPAIASAIRQQIESY | -0.874 ± 0.076
SQPEVLVPIRLDMEIDGQKLRDAFTQNMNEKLMTPEMFSEILCDDLDLNPLTFVPAIASAIRQQIESY | -0.879 ± 0.29
SQPEVLVPIRLDMEIDGQKLRDAFTWNMNEKLMTPEMFSEILCDDLDLNPLTFVPAIASAIRQCIESY | -0.863 ± 0.12
SQPEVLVPIRLDMEIDGQKLRDAFTWNMNEKLMTPEMFSEILCDDLDLNPLTFVPAIASAIRQTIESY | -0.658 ± 0.086
SQPEVLVPIRLDMEIDGQKLRDAFTWNMNEKLMTPEMWSEILCDDLDLNPLTFVPAIASAIRQQIESY | -0.235 ± 0.21
SQPEVLVPIRLDMEIDGQKLRDAFTWNMNEKLMTPEMTSEILCDDLDLNPLTFVPAIASAIRQQIESY | -0.722 ± 0.28
SQPEVLVPIRLDMEEDGQKLRDAFTWNMNEKLMTPEMFSEILCDDLDLNPLTFVPAIASAIRQQIESY | -0.765 ± 0.18
SQPEVLVPIRLDMESDGQKLRDAFTWNMNEKLMTPEMFSEILCDDLDLNPLTFVPAIASAIRQQIESY | -0.934 ± 0.47
SQPEVLVPIRLDMEIDGQKLRDAFTWNMNEKLMTPEMFSEILCDDLDLNPLTFVPAIASADRQQIESY | -0.827 ± 0.29
SQPEVLVPIRLDMEIDGQKLRDAFTWNMNEKLMTPEMFSEILCDDLDLNPLTFVPAIASASRQQIESY | -1.06 ± 0.17
SQPEVLVPIRLDMEIDGQKLRDAFTWNMNEKLMTPEMFSEILCDDLDLNPLTFVPAIASAIRQQIEIY | -0.078 ± 0.28
SQPEVLVPFRLDMEIDGQKLRDAFTWNMNEKLMTPEMFSEILCDDLDLNPLTFVPAIASAIRQQIESY | -0.791 ± 0.23
SQAEVLVPIRLDMEIDGQKLRDAFTWNMNEKLMTPEMFSEILCDDLDLNPLTFVPAIASAIRQQIESY | 0.02 ± 0.067
SQWEVLVPIRLDMEIDGQKLRDAFTWNMNEKLMTPEMFSEILCDDLDLNPLTFVPAIASAIRQQIESY | -0.186 ± 0.073
SQNEVLVPIRLDMEIDGQKLRDAFTWNMNEKLMTPEMFSEILCDDLDLNPLTFVPAIASAIRQQIESY | 0.214 ± 0.098
SQPEVLVPIRLDMEIDGQKLRHAFTWNMNEKLMTPEMFSEILCDDLDLNPLTFVPAIASAIRQQIESY | 0.385 ± 0.15
SQPEVLVPIRLDMEIDGQKLRWAFTWNMNEKLMTPEMFSEILCDDLDLNPLTFVPAIASAIRQQIESY | 0.293 ± 0.3
SQPEVLVPIRLDMEIDGLKLRDAFTWNMNEKLMTPEMFSEILCDDLDLNPLTFVPAIASAIRQQIESY | -0.297 ± 0.16
SQPEVLVPIRLDMEIDGPKLRDAFTWNMNEKLMTPEMFSEILCDDLDLNPLTFVPAIASAIRQQIESY | -0.93 ± 0.23
SQPEVLVPIRLDMEIDGWKLRDAFTWNMNEKLMTPEMFSEILCDDLDLNPLTFVPAIASAIRQQIESY | 0.158 ± 0.21
SQPEQLVPIRLDMEIDGQKLRDAFTWNMNEKLMTPEMFSEILCDDLDLNPLTFVPAIASAIRQQIESY | 0.184 ± 0.11
SQPEELVPIRLDMEIDGQKLRDAFTWNMNEKLMTPEMFSEILCDDLDLNPLTFVPAIASAIRQQIESY | -0.103 ± 0.15

Variant | abundance fitness
SQPELLVPIRLDMEIDGQKLRDAFTWNMNEKLMTPEMFSEILCDDLDLNPLTFVPAIASAIRQQIESY | -0.009 ± 0.08
SQPEPLVPIRLDMEIDGQKLRDAFTWNMNEKLMTPEMFSEILCDDLDLNPLTFVPAIASAIRQQIESY | -0.366 ± 0.2
SQPECLVPIRLDMEIDGQKLRDAFTWNMNEKLMTPEMFSEILCDDLDLNPLTFVPAIASAIRQQIESY | 0.116 ± 0.077
SQPEALVPIRLDMEIDGQKLRDAFTWNMNEKLMTPEMFSEILCDDLDLNPLTFVPAIASAIRQQIESY | -0.086 ± 0.26
SQPEVLVPIVLDMEIDGQKLRDAFTWNMNEKLMTPEMFSEILCDDLDLNPLTFVPAIASAIRQQIESY | -0.024 ± 0.079
SQPEVLVPILLDMEIDGQKLRDAFTWNMNEKLMTPEMFSEILCDDLDLNPLTFVPAIASAIRQQIESY | -0.193 ± 0.11
SQPEVLVPIRLDMEIDGQKLRDAFPWNMNEKLMTPEMFSEILCDDLDLNPLTFVPAIASAIRQQIESY | -0.314 ± 0.084
SQPEVLVPIRLDMEIDGQKLRDAFFWNMNEKLMTPEMFSEILCDDLDLNPLTFVPAIASAIRQQIESY | 0.311 ± 0.21
SQPEVLVPIRLDMEIDGQKLRDAFLWNMNEKLMTPEMFSEILCDDLDLNPLTFVPAIASAIRQQIESY | -0.134 ± 0.046
SQPEVLVPIRLDMEIDGQKLRDAFTWNMNEKLMTPEMFSYILCDDLDLNPLTFVPAIASAIRQQIESY | -0.33 ± 0.082
SQPEVLVPIRLDMEIDGQKLRDAFTWNMNEKLMTPEMFSRILCDDLDLNPLTFVPAIASAIRQQIESY | 0.042 ± 0.033
SQPEVLVPIRLDMEIDGQKLRDAFTWNMNEKLMTPEMFSHILCDDLDLNPLTFVPAIASAIRQQIESY | -0.236 ± 0.065
SQPEVLVPIRLDMEIDGQKLRDAFTWNMNEKLMTPEMFSEILCDDLDLNPTTFVPAIASAIRQQIESY | -0.174 ± 0.12
SQPEVLVPIRLDMEIDGQKLRDAFTWDMNEKLMTPEMFSEILCDDLDLNPLTFVPAIASAIRQQIESY | 0.165 ± 0.23
SQPEVLVPIRLDMEIDGQKLRDAFTWNMNEKLMTPEMFSEITCDDLDLNPLTFVPAIASAIRQQIESY | -0.854 ± 0.13
SQPEVLVPIRLDMEIDGQKLRDAFTWNMNEKLMTPEMFSEIYCDDLDLNPLTFVPAIASAIRQQIESY | -0.071 ± 0.12
SQPEVLVPIRLDMEIDGQKLRDAFTWNMNEKLMTPEMFSEIKCDDLDLNPLTFVPAIASAIRQQIESY | -0.106 ± 0.072
SQPEVLVPIRLDMEIDGQKLRDAFTWNMNEKLMTPEMFSEILCDDLDLNPLTFSPAIASAIRQQIESY | -0.324 ± 0.14
SQPEVLVPIRLDMEIDGQKLRDAFTWNMNEKHMTPEMFSEILCDDLDLNPLTFVPAIASAIRQQIESY | 0.146 ± 0.053
SQPEVLVPIRLDMEIDGQKLRDAFTWNMNEKKMTPEMFSEILCDDLDLNPLTFVPAIASAIRQQIESY | 0.176 ± 0.058
SQPEVLVPIRLDMEIDGQKLRDAFTWNMNEKMMTPEMFSEILCDDLDLNPLTFVPAIASAIRQQIESY | 0.085 ± 0.046
SQPEVLVPIRLDMEIDGQKLRDAFTWNMNEKFMTPEMFSEILCDDLDLNPLTFVPAIASAIRQQIESY | 0.09 ± 0.079
SQPEVLVPIRLDMEIDGQKLRDAFTWNMNEKTMTPEMFSEILCDDLDLNPLTFVPAIASAIRQQIESY | 0.134 ± 0.055
SQPEVLVPIRLDMEIDGQKLRDAFTWNMNESLMTPEMFSEILCDDLDLNPLTFVPAIASAIRQQIESY | -0.063 ± 0.065
SQPEVLVPIRLDMEIDGQKLRDAFTWNMNEDLMTPEMFSEILCDDLDLNPLTFVPAIASAIRQQIESY | 0.018 ± 0.17
